The target in experiment [1] is DR5-IgG (human). The experiment is described as follows: method not stated; against zinc-bound Apo-2L.
For experiment [2], the target named is DR5-IgG (human). The experiment in a line: phage bound and eluted from DR5-IgG coated well against blank well; phage grown at 37 C.

Several values for one entry are separate records, joined by “and”; a condition that tells them apart may be missing. Equal values may be shown once.

For “Apo-2L after removal of the bound metal by dialysis against chelating agents (ligand)”, the fold decrease in DR5 affinity in experiment [1] was 7 fold.
Regarding “wild-type Apo2L/TRAIL (residues 96-281) displayed on M13 phage (ligand)”, in experiment [2], the Enrichment (ratio (DR5-IgG well / blank well)) was 1.5 and 3.3.

For the origin of these results see patent publication US20070098681A1.
